Assay results published in US20260166131A1, “METHOD FOR PROMOTING PATHOLOGICAL TDP-43 PROTEIN DEGRADATION, AND DRUG” (TALENGEN INTERNATIONAL LIMITED, priority 2022, published 2026).
Entries after “also recorded” stand apart in the source; their conditions may differ.

Key:
[1] = Plasma plasminogen level after tail vein injection in SOD1-G93A mice (ELISA); format: in vivo, mouse
Experimental: Twenty-seven 10-15 week-age B6.Cg-Tg (SOD1-G93A) 1Gur/J (SOD1-G93A) mice (pedigree number: 004435) (referred to as SOD1-G93A mice) (breeding mice were purchased from Jackson Laboratory, USA) were randomly divided into three groups: three in the vehicle control group, 12 in the 6 mg/kg plasminogen group, and 12 in the 50 mg/kg plasminogen group. The mice in the vehicle control group were injected with vehicle at 5 ml/kg by tail vein, the mice in the 6 mg/kg plasminogen group were injected with plasminogen (1.2 mg/ml) at 6 mg/kg body weight by tail vein, and the mice in the 50 mg/kg plasminogen group were injected with plasminogen (10 mg/ml) at 6 mg/kg body weight by tail vein. The mice in the vehicle control group were killed 2 hours after administration, and their blood was collected. Three mice in the 6 mg/kg plasminogen group and three mice in the 50 mg/kg plasminogen group were killed at 2, 6, 12 and 24 hours after administration, and their blood was collected. After the blood was centrifuged (3500 rpm, 10 min, 4° C.), the supernatant was taken to test according to the instructions of Human Plasminogen ELISA Kit (manufacturer: AssayMax, catalog number: EP1200-1). The concentration of each sample was calibrated by using human plasminogen working standard as the internal standard. The calibrated concentration was divided by the total protein concentration to calculate the amount of plasminogen per unit of total protein in each sample and perform statistical analysis.

[2] = Spinal cord tissue plasminogen level after tail vein injection in SOD1-G93A mice (ELISA); format: in vivo, mouse
Description: Spinal cord tissue was obtained from the mice sacrificed in Example 11, homogenizing and detecting according to the instructions of Human Plasminogen ELISA Kit (manufacturer: AssayMax, catalog number: EP1200-1). The human plasminogen working standard in the kit was used as the internal standard to calibrate the concentration of each sample. The calibrated concentration was divided by the total protein concentration to calculate the amount of plasminogen per unit of total protein in each sample and perform statistical analysis.

[3] = Human plasminogen level in nuclei of brain, spinal cord and kidney tissue of SOD1-G93A mice (ELISA); format: in vivo, mouse; conditions: 50 mg/kg tail vein every day, 7 days, vs vehicle group, P<0.001
Experimental: Ten 9-week-age SOD1-G93A mice were randomly divided into two groups: a vehicle group and a plasminogen group, with 5 mice in each group. Five C57 mice of the same week-age were selected as normal control mice. […] The vehicle and plasminogen were administered continuously for 7 days. The mice were killed 7 days later, and brain, spinal cord and kidney tissues were collected. The tissue was cut into small pieces to digest with 0.25% trypsin (Beyotime Biotechnology, C0201-500 mL), then filtering with a 200-mesh cell sieve to obtain a single cell suspension. […] The extracted nuclear protein was tested for human plasminogen level by ELISA.

[4] = Blood plasminogen level in MPTP Parkinson's model mice (ELISA); format: in vivo, mouse; conditions: 50 mg/kg tail vein
Experimental: Eighteen 6-week-age male C57BL/6J mice were injected intraperitoneally with 1-methyl-4-phenyl-1,2,3,6-tetrahydropyridine (MPTP) solution at a dose of 35 mg/kg/mouse for 5 consecutive days to establish a Parkinson's model [7]. […] The mice were randomly divided into two groups according to their body weight: 6 mice in vehicle group, 12 mice in plasminogen group; and administration was begun to record as day 1. The mice in the plasminogen group were injected with 50 mg/kg body weight of plasminogen solution by tail vein, and the mice in the vehicle group were injected with 5 mL/kg body weight of vehicle solution (10 mM citric acid-sodium citrate solution, pH 7.4) by tail vein. Three mice in the vehicle group were killed respectively 2 and 24 hours after administration, and their blood was collected. Three mice in the plasminogen group were killed 2, 6, 12, and 24 hours after administration, and their blood was collected. After the blood was centrifuged (3500 rpm, 10 min, 4° C.), the supernatant was taken to detect according to the instructions of Human Plasminogen ELISA Kit (manufacturer: AssayMax, catalog number: EP1200-1). The concentration of each sample was calibrated by using human plasminogen working standard as the internal standard. […]

[5] = Plasmin activity in brain homogenate of FAD mice (enzyme substrate kinetic method); format: in vivo, mouse; conditions: 2 hours
Experimental: 85 μL/well of seven different concentrations of standard solution, blank, and sample were added to the ELISA plate (manufacturer: NUNC, catalog number: 446469) in sequence, and then 15 μL of 20 mM S-2251 solution (manufacturer: Chromogenix, catalog number: 82033239) was added to each well to incubate at 37° C. Starting from 0 min of reaction, the A405 absorbance value was read in a multifunctional microplate reader every 5 min until the reaction time was 90 min. All reactions were fitted with a straight line by time and absorbance, and the slope of the straight line was the reaction rate of the standard/sample (ΔA405/min). Finally, the potency value of the standard substance and ΔA405/min were used to create a standard curve to calculate the potency of the measured samples. The plasmin activity per unit of total protein in each sample was calculated.

TDP-43 = TDP-43 (Mus musculus, UniProt Q921F2); assay: Immunofluorescence co-localization staining of plasminogen and TDP-43 in spinal cord tissue of SOD1-G93A mice; format: in vivo; parameters: from tissue; host or cells: mouse spinal cord, gluteal muscle, brain, kidney cell nuclei; conditions: 1 mg/mouse tail vein every day
Experimental: Five wild-type male mice and nine male SOD1-G93A mice of similar week-age were selected. Wild-type mice served as the blank control group, and SOD1-G93A mice were observed and recorded from the time of hind leg tremor when they became ill at week 14, and the onset time of each mouse was recorded. Administering to mice 14 days after the onset of the disease. All mice were randomly divided into a vehicle group and a plasminogen group according to the onset of the disease: 5 mice in the vehicle group, which were injected with 0.1 ml of vehicle (sodium citrate buffer)/mouse by tail vein every day; 4 mice in the plasminogen group, which were injected with 1 mg of plasminogen/0.1 ml of vehicle/mouse by tail vein every day. The vehicle and plasminogen were administered continuously under SPF environment, and the samples were collected at the near-death stage. The longest administration was 61 days. The spinal cord tissue collected was fixed in formalin fixative solution. The fixed tissues were dehydrated with gradient alcohol and transparentized with xylene before being embedded in paraffin. The thickness of tissue sections was 3 μm, and the sections were dewaxed and rehydrated and then washed once. The sections were immersed in antigen retrieval working solution (0.01 M sodium citrate buffer) to perform microwave retrieval: preheating for 5 minutes, high heating for 2 minutes, and low heating for 15 minutes. The tissue was circled with a PAP pen, then incubating in 3% hydrogen peroxide for 15 minutes, and washing twice with 0.01 M PBS for 5 minutes each time, blocking with 5% normal goat serum (Vector laboratories, Inc., USA) for 30 minutes. After the time for blocking is up, the goat serum is discarded, adding anti-plasminogen antibody (self-produced), then incubating at 4° C. overnight, and washing twice with 0.01M PBS for 5 minutes each time. The goat anti-rabbit IgG (HRP) antibody (Abcam) secondary antibody was added to incubate at room temperature for 1 hour, then washing twice with 0.01M PBS for 5 minutes each time. The green fluorescence color development of the corresponding anti-plasminogen secondary antibody was performed according to the instructions of the XTSA520 IHC kit (Alpha X Biotech, AXT6202500), washing 3 times with PBS for 5 minutes each time. The above antigen retrieval and blocking procedures were repeated, and then anti-TDP-43 antibody (Proteintech, 12892-1-AP) staining was performed, then incubating at 37° C. for 1 hour, washing 3 times with PBS for 5 minutes each time. […] The red fluorescence color development of the corresponding anti-TDP-43 secondary antibody was performed according to the instructions of the XTSA620 IHC kit (Alpha X Biotech, AXT6502500), washing 3 times with PBS for 5 minutes each time. […]

[6] = tail vein injection of 50 mg/kg

Chain of TDP-43 (Q921F2 whole entry): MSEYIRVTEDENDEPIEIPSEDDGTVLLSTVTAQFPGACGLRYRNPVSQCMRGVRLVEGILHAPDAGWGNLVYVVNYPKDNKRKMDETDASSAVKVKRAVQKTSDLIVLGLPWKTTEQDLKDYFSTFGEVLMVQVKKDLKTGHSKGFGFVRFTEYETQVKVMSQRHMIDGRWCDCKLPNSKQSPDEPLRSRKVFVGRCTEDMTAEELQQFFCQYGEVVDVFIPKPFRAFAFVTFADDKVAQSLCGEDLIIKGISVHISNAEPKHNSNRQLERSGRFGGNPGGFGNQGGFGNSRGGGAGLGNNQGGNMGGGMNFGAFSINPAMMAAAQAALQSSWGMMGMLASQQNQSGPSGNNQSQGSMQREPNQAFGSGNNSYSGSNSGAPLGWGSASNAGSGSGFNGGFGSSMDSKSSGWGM

B1: plasminogen: human plasminogen purified from human donor plasma, in which human Lys-plasminogen and Glu-plasminogen are >98% (protein)
chain: KVYLSECKTGNGKNYRGTMSKTKNGITCQKWSSTSPHRPRFSPATHPSEGLEENYCRNPDNDPQGPWCYTTDPEKRYDYCDILECEEECMHCSGENYDGKISKTMSGLECQAWDSQSPHAHGYIPSKFPNKNLKKNYCRNPDRELRPWCFTTDPNKRWELCDIPRCTTPPPSSGPTYQCLKGTGENYRGNVAVTVSGHTCQHWSAQTPHTHNRTPENFPCKNLDENYCRNPDGKRAPWCHTTNSQVRWEYCKIPSCDSSPVSTEQLAPTAPPELTPVVQDCYHGDGQSYRGTSSTTTTGKKCQSWSSMTPHRHQKTPENYPNAGLTMNYCRNPDADKGPWCFTTDPSVRWEYCNLKKCSGTEASVVAPPPVVLLPDVETPSEEDCMFGNGKGYRGKRATTVTGTPCQDWAAQEPHRHSIFTPETNPRAGLEKNYCRNPDGDVGGPWCYTTNPRKLYDYCDVPQCAAPSFDCGKPQVEPKKCPGRVVGGCVAHPHSWPWQVSLRTRFGMHFCGGTLISPEWVLTAAHCLEKSPRPSSYKVILGAHQEVNLEPHVQEIEVSRLFLEPTRKDIALLKLSSPAVITDKVIPACLPSPNYVVADRTECFITGWGETQGTFGAGLLKEAQLPVIENKVCNRYEFLNGRVQSTELCAGHLAGGTDSCQGDSGGPLVCFEKDKYILQGVTSWGLGCARPNKPGVYVRVSRFVTWIEGVMRNN
With B1 the “plasma plasminogen level, 50 mg/kg group compared with 6 mg/kg group” value ([1]; tail vein) was “significantly higher”, the “time within which plasminogen is almost completely metabolized (plasma)” value ([1]; tail vein 50 mg/kg and 6 mg/kg, level decreases from 2 hours) was 12 to 24 h and the plasma plasminogen level ([1]; tail vein injection of 6 mg/kg) was “increase significantly”. The plasma plasminogen level [1, 6] was “increase significantly”, the “plasminogen level in the spinal cord, 50 mg/kg group compared with 6 mg/kg group” value ([2]; tail vein) was “significantly higher” and the “time within which plasminogen is almost completely metabolized (spinal cord)” value ([2]; tail vein 50 mg/kg and 6 mg/kg) was 12 to 24 h. The “plasminogen level in the spinal cord” value ([2]; tail vein injection of 6 mg/kg) was “increase significantly”, the “plasminogen level in the spinal cord” value [2, 6] was “increase significantly” and the “level of human plasminogen in the nuclei of brain tissue” value [3] was “significantly higher”. For the same molecule, the “level of human plasminogen in the nuclei of kidney tissue” value [3] was “significantly higher”, the “level of human plasminogen in the nuclei of spinal cord tissue” value [3] was “significantly higher” and the “time within which plasminogen is almost completely metabolized (blood)” value [4] was 12 to 24 h. For the same molecule, the “plasminogen level in the blood” value ([4]; vs vehicle group) was “significantly higher”, the “plasmin activity level in brain tissue” value ([5]; tail vein injection of 6 mg/kg, 6 mg/kg) was “increases significantly” and the “plasmin activity level in brain tissue” value ([5]; tail vein injection of 50 mg/kg, 50 mg/kg) was “increases significantly”. The “level in brain tissue, 50 mg/kg group compared with 6 mg/kg group” value ([5]; tail vein) was “significantly higher”, the “subcellular presence of plasminogen in spinal cord tissue” value (TDP-43) was “present in the cytoplasm (as indicated by A) and in the nucleus; also recorded: present in the cytoplasm (as indicated by Δ) and in the nucleus” and the “level of TDP-43 in spinal cord tissue” value (TDP-43; immunofluorescence, vs vehicle group) was “lower than that in the vehicle group; also recorded: lower than that of the vehicle group”. For the same molecule, the “positive staining of plasminogen in spinal cord tissue” value (TDP-43; up to 61 days, vs vehicle group) was “significantly more” and the “co-localization of plasminogen and TDP-43 in spinal cord tissue” value (TDP-43; vs vehicle group) was “more than that in the vehicle group”.
